According to PMC3841102, “Activation of Smurf E3 Ligase Promoted by Smoothened Regulates Hedgehog Signaling through Targeting Patched Turnover” (PLoS Biology, 2013):
Where a chain is given by its changes, count along the chain named. Numbers in names are those of the source. One block for each binder: values may come before it.

Columns and labels:
[1] = target: the molecule itself; assay: native gel or EMSA; lysates of S2 cells transfected for 48 h; native polyacrylamide gel and Western blot
[2] = target: T1, His:Smurf protein (full length Drosophila Smurf) (Drosophila, UniProt Q9V853 1-1061); assay: pull-down; GST fusion protein loaded glutathione beads incubated with 200 ng purified His:Smurf; 50 mM Tris-Cl pH 8.0, 200 mM NaCl, 1 mM EDTA, 1% NP-40, 2% BSA, 10 mM DTT, 1 mM PMSF; 4°C, 1 h; Western blot; conditions: both partners purified
T1 construct: Smurf E3 ligase, Drosophila, full length; Vector pET28a; also called Smurf in pET28a; source: E. coli, purified (Ni Sepharose)
T1 sequence (looked up): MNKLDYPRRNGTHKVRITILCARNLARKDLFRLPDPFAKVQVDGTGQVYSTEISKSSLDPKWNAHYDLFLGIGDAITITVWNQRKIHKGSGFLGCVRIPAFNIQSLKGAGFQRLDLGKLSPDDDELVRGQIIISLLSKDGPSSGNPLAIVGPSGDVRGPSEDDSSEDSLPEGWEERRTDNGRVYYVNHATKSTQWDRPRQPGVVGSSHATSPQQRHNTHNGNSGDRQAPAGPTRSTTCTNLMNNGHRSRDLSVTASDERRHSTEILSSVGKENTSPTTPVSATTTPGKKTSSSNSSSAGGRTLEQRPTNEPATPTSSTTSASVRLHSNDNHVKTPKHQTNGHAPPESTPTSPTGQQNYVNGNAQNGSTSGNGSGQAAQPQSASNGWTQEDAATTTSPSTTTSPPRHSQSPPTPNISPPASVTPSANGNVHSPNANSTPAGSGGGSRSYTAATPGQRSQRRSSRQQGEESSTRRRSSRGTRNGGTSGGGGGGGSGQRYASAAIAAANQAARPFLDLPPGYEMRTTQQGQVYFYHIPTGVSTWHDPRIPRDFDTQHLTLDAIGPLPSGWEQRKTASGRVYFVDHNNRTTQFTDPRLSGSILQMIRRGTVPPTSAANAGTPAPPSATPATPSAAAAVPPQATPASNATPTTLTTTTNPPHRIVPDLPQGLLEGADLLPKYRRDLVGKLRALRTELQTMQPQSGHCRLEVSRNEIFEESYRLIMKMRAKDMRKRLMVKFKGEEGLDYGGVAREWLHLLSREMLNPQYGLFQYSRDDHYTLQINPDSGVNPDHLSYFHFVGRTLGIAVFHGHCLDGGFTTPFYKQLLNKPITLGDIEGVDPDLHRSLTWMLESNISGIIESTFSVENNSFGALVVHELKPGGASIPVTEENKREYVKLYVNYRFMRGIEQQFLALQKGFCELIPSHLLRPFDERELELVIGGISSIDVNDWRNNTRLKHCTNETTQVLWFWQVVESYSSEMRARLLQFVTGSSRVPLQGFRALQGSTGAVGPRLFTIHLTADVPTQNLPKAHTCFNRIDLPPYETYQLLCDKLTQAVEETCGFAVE

B1: Ptc^CTD (C-terminal tail of Ptc) expressed in S2 cells (domain or fragment, Drosophila, UniProt P18502 1101-1286, looked up)
chain: ILLSMVGPEAELVPLEHPDRISTPSPLPVRSSKRSGKSYVVQGSRSSRGSCQKSHHHHHKDLNDPSLTTITEEPQSWKSSNSSIQMPNDWTYQPREQRPASYAAPPPAYHKAAAQQHHQHQGPPTTPPPPFPTAYPPELQSIVVQPEVTVETTHSDSNTTKVTATANIKVELAMPGRAVRSYNFTS
notes: Patched (Ptc), Drosophila, C-terminal tail; also called C-tail of Ptc; Ptc C-tail; source: S2 cells, transfected, in lysate
stoichiometry N [1]: 3

binding result [2]: binds
B2: GST:Flag:Ptc^CTD fusion protein (domain or fragment, Drosophila, UniProt P18502 1101-1286, looked up)
chain: B1 chain
notes: Patched (Ptc), Drosophila, C-terminal domain, residues 1101-1286; Vector pGEX4T-1; also called Flag tagged Ptc^CTD (1101-1286 a.a) in pGEX4T-1; source: E. coli, purified (glutathione agarose beads, batch)

B3: Ptc^CTD with the K1261R mutation, in S2 cells (domain or fragment, Drosophila, UniProt P18502 1101-1286, looked up)
chain: B1 chain with K161R
notes: Patched (Ptc), Drosophila, C-terminal domain with K1261R; source: S2 cells, transfected, in lysate
stoichiometry N [1]: 3
